Source: patent publication US20180346600

Legend:
Assay in all cases: HEK293-F co-expression, Protein A purification, non-reducing SDS-PAGE densitometry
[1] = target: FcCH3B, A205 (E357N/K370R)
FcCH3B, A216 (E357N) = target: FcCH3B, A216 (E357N)
[2] = target: T1, FcCH3B, B240 (D399G/K392G/K409M)
T1 chain: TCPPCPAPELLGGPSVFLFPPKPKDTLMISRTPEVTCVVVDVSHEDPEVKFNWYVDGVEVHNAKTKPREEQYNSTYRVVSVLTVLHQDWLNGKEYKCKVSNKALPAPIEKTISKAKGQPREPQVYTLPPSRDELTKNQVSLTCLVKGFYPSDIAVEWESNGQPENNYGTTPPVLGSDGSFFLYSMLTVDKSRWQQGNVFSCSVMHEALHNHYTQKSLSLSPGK

[3] = target: T2, FcCH3B, B215 (D399W/K392G/K409M)
T2 chain: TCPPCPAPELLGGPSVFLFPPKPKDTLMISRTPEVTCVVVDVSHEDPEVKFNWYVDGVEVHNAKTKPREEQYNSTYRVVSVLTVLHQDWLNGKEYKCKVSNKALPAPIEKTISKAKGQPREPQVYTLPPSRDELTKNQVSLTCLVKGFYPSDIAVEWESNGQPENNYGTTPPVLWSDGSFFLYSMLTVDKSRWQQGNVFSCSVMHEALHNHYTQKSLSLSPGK

FcCH3B, A241 (E357N) = target: FcCH3B, A241 (E357N)
[4] = target: FcCH3B, A210 (E357N/K370H)

B1: scFv-FcCH3A, A205 (E357D/S364W/K370E) (protein)
chain: TCPPCPAPELLGGPSVFLFPPKPKDTLMISRTPEVTCVVVDVSHEDPEVKFNWYVDGVEVHNAKTKPREEQYNSTYRVVSVLTVLHQDWLNGKEYKCKVSNKALPAPIEKTISKAKGQPREPQVYTLPPSRDDLTKNQVWLTCLVEGFYPSDIAVEWESNGQPENNYKTTPPVLDSDGSFFLYSKLTVDKSRWQQGNVFSCSVMHEALHNHYTQKSLSLSPGK
For B1, the (scFv-Fc)(Fc) (heterodimer)(%) [1] was 88.8%.

B2: scFv-FcCH3A, A216 (E357G/S364W/K370E) (protein)
chain: TCPPCPAPELLGGPSVFLFPPKPKDTLMISRTPEVTCVVVDVSHEDPEVKFNWYVDGVEVHNAKTKPREEQYNSTYRVVSVLTVLHQDWLNGKEYKCKVSNKALPAPIEKTISKAKGQPREPQVYTLPPSRDGLTKNQVWLTCLVEGFYPSDIAVEWESNGQPENNYKTTPPVLDSDGSFFLYSKLTVDKSRWQQGNVFSCSVMHEALHNHYTQKSLSLSPGK
B2 was tested, and the (scFv-Fc)(Fc) (heterodimer)(%) (FcCH3B, A216 (E357N)) was 80.3%.

B3: scFv-FcCH3A, B240 (K392S/K409R/D399L) (protein)
chain: TCPPCPAPELLGGPSVFLFPPKPKDTLMISRTPEVTCVVVDVSHEDPEVKFNWYVDGVEVHNAKTKPREEQYNSTYRVVSVLTVLHQDWLNGKEYKCKVSNKALPAPIEKTISKAKGQPREPQVYTLPPSRDELTKNQVSLTCLVKGFYPSDIAVEWESNGQPENNYSTTPPVLLSDGSFFLYSRLTVDKSRWQQGNVFSCSVMHEALHNHYTQKSLSLSPGK
B3 was tested, and the (scFv-Fc)(Fc) (heterodimer)(%) [2] was 83.3%.

B4: scFv-FcCH3A, B215 (K392R/K409R/D399L) (protein)
chain: TCPPCPAPELLGGPSVFLFPPKPKDTLMISRTPEVTCVVVDVSHEDPEVKFNWYVDGVEVHNAKTKPREEQYNSTYRVVSVLTVLHQDWLNGKEYKCKVSNKALPAPIEKTISKAKGQPREPQVYTLPPSRDELTKNQVSLTCLVKGFYPSDIAVEWESNGQPENNYRTTPPVLLSDGSFFLYSRLTVDKSRWQQGNVFSCSVMHEALHNHYTQKSLSLSPGK
Work on B4 yielded a (scFv-Fc)(Fc) (heterodimer)(%) [3] of 78.1%.

B5: scFv-FcCH3A, A241 (E357N/S364W/K370E) (protein)
chain: TCPPCPAPELLGGPSVFLFPPKPKDTLMISRTPEVTCVVVDVSHEDPEVKFNWYVDGVEVHNAKTKPREEQYNSTYRVVSVLTVLHQDWLNGKEYKCKVSNKALPAPIEKTISKAKGQPREPQVYTLPPSRDNLTKNQVWLTCLVEGFYPSDIAVEWESNGQPENNYKTTPPVLDSDGSFFLYSKLTVDKSRWQQGNVFSCSVMHEALHNHYTQKSLSLSPGK
B5 was tested, and the (scFv-Fc)(Fc) (heterodimer)(%) (FcCH3B, A241 (E357N)) was 81%.

B6: scFv-FcCH3A, A210 (E357A/S364Y/K370E) (protein)
chain: TCPPCPAPELLGGPSVFLFPPKPKDTLMISRTPEVTCVVVDVSHEDPEVKFNWYVDGVEVHNAKTKPREEQYNSTYRVVSVLTVLHQDWLNGKEYKCKVSNKALPAPIEKTISKAKGQPREPQVYTLPPSRDALTKNQVYLTCLVEGFYPSDIAVEWESNGQPENNYKTTPPVLDSDGSFFLYSKLTVDKSRWQQGNVFSCSVMHEALHNHYTQKSLSLSPGK
B6 gave a (scFv-Fc)(Fc) (heterodimer)(%) [4] of 80.8%.
